Experimental data as given in PMC11336091.

Target: T1, BmFoxO (Bombyx mori, UniProt H9BVM3 1-512)
T1 sequence: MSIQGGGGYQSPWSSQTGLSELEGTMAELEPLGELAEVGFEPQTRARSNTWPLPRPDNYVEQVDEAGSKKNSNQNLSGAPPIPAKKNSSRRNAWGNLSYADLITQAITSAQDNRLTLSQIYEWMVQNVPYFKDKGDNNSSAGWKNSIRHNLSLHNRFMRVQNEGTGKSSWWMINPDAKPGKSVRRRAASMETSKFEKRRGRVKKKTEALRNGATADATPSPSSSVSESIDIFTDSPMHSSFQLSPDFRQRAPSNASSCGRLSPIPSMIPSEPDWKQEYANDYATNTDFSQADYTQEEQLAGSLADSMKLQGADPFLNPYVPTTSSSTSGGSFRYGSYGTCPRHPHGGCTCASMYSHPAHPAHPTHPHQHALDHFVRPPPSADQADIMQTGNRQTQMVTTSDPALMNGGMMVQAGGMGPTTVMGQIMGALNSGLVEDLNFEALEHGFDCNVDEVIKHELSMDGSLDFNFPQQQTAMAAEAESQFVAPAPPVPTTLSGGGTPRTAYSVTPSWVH
Experiment: EMSA

B1: BmOSER1 promoter EMSA probe (dsDNA)
DNA 1: TGTATTAAAAACTTATATAAACTGTGATCT
DNA 2: AGATCACAGTTTATATAAGTTTTTAATACA
- binding result: binds
